Source: patent publication US20100216715A1 (Novo Nordisk, published 2010)
Changes are numbered by the printed parent chain. Numbers in names are those of the source.

T1: human beta-Klotho (human, UniProt Q86Z14 1-1044)
T1 sequence (looked up): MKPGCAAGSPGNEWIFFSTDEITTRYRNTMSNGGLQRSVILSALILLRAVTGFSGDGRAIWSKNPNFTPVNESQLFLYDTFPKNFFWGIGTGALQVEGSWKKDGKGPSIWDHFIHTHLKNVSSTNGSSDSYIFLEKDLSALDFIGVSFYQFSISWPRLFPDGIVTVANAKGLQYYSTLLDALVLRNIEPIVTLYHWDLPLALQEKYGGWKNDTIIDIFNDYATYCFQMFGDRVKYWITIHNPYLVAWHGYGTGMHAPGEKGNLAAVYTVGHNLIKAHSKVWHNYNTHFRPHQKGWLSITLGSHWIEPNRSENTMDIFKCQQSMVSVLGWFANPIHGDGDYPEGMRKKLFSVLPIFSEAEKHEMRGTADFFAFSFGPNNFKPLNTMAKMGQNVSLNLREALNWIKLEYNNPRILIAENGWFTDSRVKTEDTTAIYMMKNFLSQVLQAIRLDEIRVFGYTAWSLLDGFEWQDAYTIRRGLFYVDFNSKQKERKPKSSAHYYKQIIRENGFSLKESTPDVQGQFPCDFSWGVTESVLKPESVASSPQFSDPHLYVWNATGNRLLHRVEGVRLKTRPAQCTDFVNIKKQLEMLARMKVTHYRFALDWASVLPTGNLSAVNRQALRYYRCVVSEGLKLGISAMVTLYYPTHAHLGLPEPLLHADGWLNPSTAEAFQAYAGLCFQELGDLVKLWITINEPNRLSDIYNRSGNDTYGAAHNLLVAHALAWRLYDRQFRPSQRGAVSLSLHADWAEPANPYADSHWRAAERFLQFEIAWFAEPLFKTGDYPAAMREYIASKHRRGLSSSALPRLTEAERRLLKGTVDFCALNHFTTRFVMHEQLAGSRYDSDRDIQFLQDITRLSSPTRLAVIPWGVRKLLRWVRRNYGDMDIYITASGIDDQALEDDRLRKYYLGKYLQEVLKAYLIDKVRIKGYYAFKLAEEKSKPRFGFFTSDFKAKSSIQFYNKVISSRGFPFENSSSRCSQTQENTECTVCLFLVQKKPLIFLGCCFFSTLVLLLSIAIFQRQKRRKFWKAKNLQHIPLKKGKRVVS

B1: (179F, 180E, 181R) Met-FGF21 (ligand)
chain: MHPIPDSSPLLQFGGQVRQRYLYTDDAQQTEAHLEIREDGTVGGAADQSPESLLQLKALKPGVIQILGVKTSRFLCQRPDGALYGSLHFDPEACSFRELLLEDGYNVYQSEAHGLPLHLPGNKSPHRDPAPRGPARFLPLPGLPPALPEPPGILAPQPPDVGSSDPLSMVGPSQGRSPSFER
B2: (K56R, K59R, K69R, K122R) Met-FGF21 derivative of Example 7 (ligand)
chain: B1 chain with K57R, K60R, K70R, K123R, F180Y, E181A, R182S
modifications: N-alpha-1-[2-(2-{2-[2-(2-{2-[(S)-4-carboxy-4-(17-carboxy-heptadecanoylamino)-butyrylamino]-ethoxy}-ethoxy)-acetylamino]-ethoxy}-ethoxy)-acetyl] on the alpha amino group of the N-terminal Met
B3: S71C Met-FGF21 derivative of Example 13 (ligand)
chain: B1 chain with S72C, F180Y, E181A, R182S
modifications: S-71-[1-(2-{2-[2-(2-{2-[2-(2-{2-[(S)-4-carboxy-4-(17-carboxy-heptadecanoylamino)-butyrylamino]-ethoxy}-ethoxy)-acetylamino]-ethoxy}-ethoxy)-acetylamino]-ethylcarbamoyl}-ethyl)-2,5-dioxo-pyrrolidin-3-yl] on the thiol of Cys71
B4: (M168S) Ser-FGF21 (ligand)
chain: B1 chain with M1S, M169S, F180Y, E181A, R182S
B5: S71C Met-FGF21 derivative of Examples 6 and 12 (ligand)
chain: B1 chain with S72C, F180Y, E181A, R182S
modifications: S-71-({2-[2-(2-{2-[2-(2-{2-[(S)-4-carboxy-4-(19-carboxy-nonadecanoylamino)-butyrylamino]-ethoxy}-ethoxy)-acetylamino]-ethoxy}-ethoxy)-acetylamino]-ethylcarbamoyl}-methyl) on the thiol of Cys71
B6: Gly-FGF21 (ligand)
chain: B1 chain with M1G, F180Y, E181A, R182S
B7: (Q28R, A31 E) Met-FGF21 (ligand)
chain: B1 chain with Q29R, A32E, F180Y, E181A, R182S
B8: Gly-FGF21-M168L (ligand)
chain: B1 chain with M1G, M169L, F180Y, E181A, R182S
B9: Q27E Met-FGF21 (ligand)
chain: B1 chain with Q28E, F180Y, E181A, R182S
B10: S71C Met-FGF21 (ligand)
chain: B1 chain with S72C, F180Y, E181A, R182S
B11: (Q15F, K56R, K59R, K69R, D102T, N121Q, K122R, Y179F, A180E, S181R) Gly-FGF21 (ligand)
chain: B1 chain with M1G, Q16F, K57R, K60R, K70R, D103T, N122Q, K123R
B12: S71C Met-FGF21 derivative of Example 5 (ligand)
chain: B1 chain with S72C, F180Y, E181A, R182S
modifications: S-71-[1-(2-{2-[2-(2-{2-[2-(2-{2-[(S)-4-carboxy-4-(19-carboxy-nonadecanoylamino)-butyrylamino]-ethoxy}-ethoxy)-acetylamino]-ethoxy}-ethoxy)-acetylamino]-ethylcarbamoyl}-ethyl)-2,5-dioxo-pyrrolidin-3-yl] on the thiol of Cys71
B13: A26E Met-FGF21 (ligand)
chain: B1 chain with A27E, F180Y, E181A, R182S
B14: (D24K) Met-FGF21 (ligand)
chain: B1 chain with D25K, F180Y, E181A, R182S
B15: S71C Met-FGF21 derivative of Example 14 (ligand)
chain: B1 chain with S72C, F180Y, E181A, R182S
modifications: S-71-({2-[2-(2-{2-[2-(2-{2-[(S)-4-carboxy-4-(17-carboxy-heptadecanoylamino)-butyrylamino]-ethoxy}-ethoxy)-acetylamino]-ethoxy}-ethoxy)-acetylamino]-ethylcarbamoyl}-methyl) on the thiol of Cys71
B16: (K56R, K59R, K69R, K122R) FGF21 (ligand)
chain: HPIPDSSPLLQFGGQVRQRYLYTDDAQQTEAHLEIREDGTVGGAADQSPESLLQLRALRPGVIQILGVRTSRFLCQRPDGALYGSLHFDPEACSFRELLLEDGYNVYQSEAHGLPLHLPGNRSPHRDPAPRGPARFLPLPGLPPALPEPPGILAPQPPDVGSSDPLSMVGPSQGRSPSYAS
B17: (K56R, K59R, K69R, N121Q, K122R, L166F, S167G, M168L, 169aT, P171L, S172E, Q173A, G174V, Y179F, A180E, S181R) FGF21 (ligand)
chain: HPIPDSSPLLQFGGQVRQRYLYTDDAQQTEAHLEIREDGTVGGAADQSPESLLQLRALRPGVIQILGVRTSRFLCQRPDGALYGSLHFDPEACSFRELLLEDGYNVYQSEAHGLPLHLPGQRSPHRDPAPRGPARFLPLPGLPPALPEPPGILAPQPPDVGSSDPFGLVTGLEAVRSPSFER
B18: (169aT, 171L, 172E, 173A, 174V, 179F, 180E, 181K) Met-FGF21 (ligand)
chain: MHPIPDSSPLLQFGGQVRQRYLYTDDAQQTEAHLEIREDGTVGGAADQSPESLLQLKALKPGVIQILGVKTSRFLCQRPDGALYGSLHFDPEACSFRELLLEDGYNVYQSEAHGLPLHLPGNKSPHRDPAPRGPARFLPLPGLPPALPEPPGILAPQPPDVGSSDPLSMVTGLEAVRSPSFEK
B19: (L166F, S167G, M168L, 169aT, P171L, S172E, Q173A, G174V, Y179F, A180E, S181K) Ser-FGF21 (ligand)
chain: B18 chain with M1S, L167F, S168G, M169L
B20: (K56R, K59R, K69R, K122R, L166F, S167G, M168L, 169aT, P171L, S172E, Q173A, G174V, Y179F, A180E, S181R) Ser-FGF21 (ligand)
chain: B18 chain with M1S, K57R, K60R, K70R, K123R, L167F, S168G, M169L, K183R
B21: (S71C, L166F, S167G, M168L, 169aT, P171L, S172E, Q173A, G174V, Y179F, A180E, S181K) Ser-FGF21 (ligand)
chain: B18 chain with M1S, S72C, L167F, S168G, M169L
B22: (K56R, 59R, 69R, 122R, 166F, 167G, 168L, 169aT, 171L, 172E, 173A, 174V, 179F, 180E, 181R) Ser-FGF21 derivative of Example 50 (ligand)
chain: B18 chain with M1S, K57R, K60R, K70R, K123R, L167F, S168G, M169L, K183R
modifications: N-alpha-1-[2-(2-{2-[2-(2-{2-[(S)-4carboxy-4-(17-carboxy-heptadecanoylamino)-butyrylamino]-ethoxy}-ethoxy)-acetylamino]-ethoxy}-ethoxy)-acetyl] on the N-terminal alpha amino group
B23: (S71C, N121Q, L166F, S167G, M168L, 169aT, P171L, S172E, Q173A, G174V, Y179F, A180E, S181K) Ala-FGF21 (ligand)
chain: B18 chain with M1A, S72C, N122Q, L167F, S168G, M169L
B24: (-1A, 71C, 121Q, 166F, 167G, 168L, 169aT, 171L, 172E, 173A, 174V, 179F, 180E, 181K) FGF21 derivative of Example 17 (ligand)
chain: B18 chain with M1A, S72C, N122Q, L167F, S168G, M169L
modifications: S-71-({2-[2-(2-{2-[2-(2-{2-[(S)-4-carboxy-4-(17-carboxy-heptadecanoylamino)-butyrylamino]-ethoxy}-ethoxy)-acetylamino]-ethoxy}-ethoxy)-acetylamino]-ethylcarbamoyl}-methyl) on the thiol of Cys71
B25: (-1S, 71C, 166F, 167G, 168L, 169aT, 171L, 172E, 173A, 174V, 179F, 180E, 181K) FGF21 derivative of Example 18 (ligand)
chain: B18 chain with M1S, S72C, L167F, S168G, M169L
modifications: S-71-({2-[2-(2-{2-[2-(2-{2-[(S)-4-carboxy-4-(17-carboxy-heptadecanoylamino)-butyrylamino]-ethoxy}-ethoxy)-acetylamino]-ethoxy}-ethoxy)-acetyl-amino]-ethylcarbamoyl}-methyl) on the thiol of Cys71
B26: (des N121) Met-FGF21 (ligand)
chain: MHPIPDSSPLLQFGGQVRQRYLYTDDAQQTEAHLEIREDGTVGGAADQSPESLLQLKALKPGVIQILGVKTSRFLCQRPDGALYGSLHFDPEACSFRELLLEDGYNVYQSEAHGLPLHLPGKSPHRDPAPRGPARFLPLPGLPPALPEPPGILAPQPPDVGSSDPLSMVGPSQGRSPSYAS
B27: (K56R, K59R, K69R, D102E, N121Q, K122R, M168L) GSGSG-FGF21 (ligand)
chain: GSGSGHPIPDSSPLLQFGGQVRQRYLYTDDAQQTEAHLEIREDGTVGGAADQSPESLLQLRALRPGVIQILGVRTSRFLCQRPDGALYGSLHFDPEACSFRELLLEEGYNVYQSEAHGLPLHLPGQRSPHRDPAPRGPARFLPLPGLPPALPEPPGILAPQPPDVGSSDPLSLVGPSQGRSPSYAS
B28: (-5G, -4S, -3G, -2S, -1G, K56R, 59R, 69R, 102E, 121Q, 122R, 168L) FGF21 derivative of Example 55 (ligand)
chain: B27 chain
modifications: N-alpha-1-[4-(16-1H-tetrazol-5-yl-hexadecanoylsulfamoyl)-butyryl] on the N-terminal alpha amino group
B29: [-5G, -4S, -3G, -2S, -1G, K56R, 59R, 69R, 102E, 121Q, 122R, 168L] FGF21 derivative of Example 52 (ligand)
chain: B27 chain
modifications: N-alpha-1-[2-(2-{2-[2-(2-{2-[(S)-4-carboxy-4-(17-carboxy-heptadecanoylamino)-butyrylamino]-ethoxy}-ethoxy)-acetylamino]-ethoxy}-ethoxy)-acetyl] on the N-terminal alpha amino group

Target: T1, human beta-Klotho
Experiment: cell-based or functional assay

Binder	pERK-HEK293-Beta-klotho without HSA [EC50 (nM)] Median Value [nM]
B1	5.9
B2	1.4
B3	4.8
B4	100
B5	1.5
B6	2.1
B7	1
B8	1.8
B9	2.2
B10	3
B11	75
B12	1.1
B13	4.7
B14	6.7
B15	2.9
B16	12
B17	3
B18	3.9
B19	1
B20	3.8
B21	2.2
B22	2
B23	2
B24	3
B25	2.5
B26	1
B27	6.6
B28	2
B29	11
